In patent US20040259795A1:

Legend:
[1] = biological target: soluble recombinant bovine CD14 (rBo-LAIT) (bovine) (UniProt Q95122); assay: cell-based or functional assay
[2] = biological target: soluble recombinant human CD14 (rHu-LAIT) (human) (UniProt P08571); assay: cell-based or functional assay
Chain of UniProt P08571 (P08571 20-345 C187Y limits assumed): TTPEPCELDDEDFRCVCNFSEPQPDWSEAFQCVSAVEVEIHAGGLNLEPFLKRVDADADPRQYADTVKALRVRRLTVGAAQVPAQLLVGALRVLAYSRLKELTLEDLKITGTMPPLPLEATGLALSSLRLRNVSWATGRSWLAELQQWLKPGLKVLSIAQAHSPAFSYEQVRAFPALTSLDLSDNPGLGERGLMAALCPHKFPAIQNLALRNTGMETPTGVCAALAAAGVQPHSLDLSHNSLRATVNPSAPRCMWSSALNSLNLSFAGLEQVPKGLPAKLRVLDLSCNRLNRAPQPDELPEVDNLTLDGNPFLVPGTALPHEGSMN

Chain of UniProt Q95122 (Q95122 21-373 S209T limits assumed): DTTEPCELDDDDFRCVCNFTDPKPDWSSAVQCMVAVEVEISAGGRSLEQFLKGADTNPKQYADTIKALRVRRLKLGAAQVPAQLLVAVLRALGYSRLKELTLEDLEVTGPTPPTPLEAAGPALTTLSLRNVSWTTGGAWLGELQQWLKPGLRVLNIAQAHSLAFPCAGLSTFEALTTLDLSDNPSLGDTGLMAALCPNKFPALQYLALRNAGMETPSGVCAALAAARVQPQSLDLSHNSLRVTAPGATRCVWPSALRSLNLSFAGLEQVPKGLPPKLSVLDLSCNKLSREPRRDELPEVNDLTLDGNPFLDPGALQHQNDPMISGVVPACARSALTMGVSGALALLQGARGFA

IgG2b isotype non-specific mAb OX40 (antibody)
< 15%: inhibition of B cell activation (3H-TdR uptake, percent of response without mAb) [1] | inhibition of induction of mIg+ 70Z/3 cells (flow cytometry) [1] | inhibition of B cell activation (3H-TdR uptake, percent of response without mAb) [2]
